Data as given in patent publication US20230120736A1, “ANTI-CD98 ANTIBODIES AND ANTIBODY DRUG CONJUGATES” (AbbVie Inc., priority 2016, published 2023).

T1: human CD98 (Homo sapiens, UniProt P08195)
T1 sequence (P08195 1-630 isoform P08195-1): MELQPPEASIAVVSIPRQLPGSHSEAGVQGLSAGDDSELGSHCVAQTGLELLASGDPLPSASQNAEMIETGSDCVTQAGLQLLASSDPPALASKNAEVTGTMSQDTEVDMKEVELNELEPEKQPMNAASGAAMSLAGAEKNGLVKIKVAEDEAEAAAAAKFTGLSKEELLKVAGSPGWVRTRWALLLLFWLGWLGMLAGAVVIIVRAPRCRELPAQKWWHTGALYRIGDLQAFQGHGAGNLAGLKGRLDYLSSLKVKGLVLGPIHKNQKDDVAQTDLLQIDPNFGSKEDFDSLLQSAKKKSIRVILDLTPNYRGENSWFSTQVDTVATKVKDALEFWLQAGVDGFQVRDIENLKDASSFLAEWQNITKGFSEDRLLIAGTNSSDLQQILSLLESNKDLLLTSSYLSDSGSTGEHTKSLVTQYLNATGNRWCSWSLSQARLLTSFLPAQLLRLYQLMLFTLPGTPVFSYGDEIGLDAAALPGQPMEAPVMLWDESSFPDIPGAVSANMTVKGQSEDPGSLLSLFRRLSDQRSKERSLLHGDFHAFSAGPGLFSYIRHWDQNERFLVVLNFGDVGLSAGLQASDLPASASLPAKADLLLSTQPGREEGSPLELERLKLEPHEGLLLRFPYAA

T2: human CD98 ECD (Homo sapiens, UniProt P08195)
T2 construct: Human CD98 ECD with C-terminal His-tag
T2 sequence (P08195 with tags, fused parts or gaps): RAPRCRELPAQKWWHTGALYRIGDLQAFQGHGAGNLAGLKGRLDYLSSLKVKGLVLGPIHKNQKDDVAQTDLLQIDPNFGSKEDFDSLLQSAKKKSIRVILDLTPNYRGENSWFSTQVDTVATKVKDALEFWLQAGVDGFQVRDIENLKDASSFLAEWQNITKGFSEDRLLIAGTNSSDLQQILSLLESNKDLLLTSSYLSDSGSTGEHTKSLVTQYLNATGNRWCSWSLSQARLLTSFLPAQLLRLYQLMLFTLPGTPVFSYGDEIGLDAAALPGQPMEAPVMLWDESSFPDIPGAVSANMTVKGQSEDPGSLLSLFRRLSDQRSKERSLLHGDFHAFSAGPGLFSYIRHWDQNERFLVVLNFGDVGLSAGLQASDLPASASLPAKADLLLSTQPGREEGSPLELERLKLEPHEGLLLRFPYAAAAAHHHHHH


Legend:
human CD98 = target: T1, human CD98; assay: Binding of humanized antibodies to human CD98; conditions: humanized variants of chAb3 and chAb15
[1] = system: cynomolgus monkey CD98 ECD; assay: Biacore surface plasmon resonance binding kinetics (anti-Fc capture); conditions: cyCD98 ECD
Description: (§1) The binding kinetics of these purified mouse and rat monoclonal anti-CD98 antibodies for purified recombinant CD98 protein (extracellular domain, ECD) were determined by surface plasmon resonance-based measurements made on Biacore T100/T200 instruments (GE Healthcare, Piscataway, N.J.) at 25° C. using an anti-Fc capture assay approach. Binding kinetic measurements were made in the assay buffer HBS-EP+: 10 mM Hepes, pH 7.4, 150 mM NaCl, 3 mM EDTA, 0.05% Tween 20). For example, approximately 8000 RU of anti-Fc (species specific) polyclonal antibody (Thermo Fisher Scientific Inc., Rockford, Ill.) diluted in 10 mM sodium acetate (pH 4.5) was directly immobilized across a CM5 research grade biosensor chip using a standard amine coupling kit according to manufacturer's instructions and procedures at 25 μg/ml. Unreacted moieties on the biosensor surface were blocked with ethanolamine. The test antibody to be captured as a ligand was diluted in running buffer to ˜0.5 μg/mL and injected over anti-Fc surface at a flow rate of 10 μL/min. CD98 binding and dissociation were observed under a continuous flow rate of 80 μL/min. Human and cynomolgus monkey CD98 ECDs, both with a C-terminal His-tag, are used for this study (Table 3). After each cycle the anti-Fc capture surface was regenerated using 10 mM Glycine-HCl, pH 1.5. During the assay, all measurements were referenced against the capture surface alone (i.e., with no captured test antibody) and buffer-only injections (no antigen) were used for double referencing. For kinetic analysis, rate equations derived from the 1:1 Langmuir binding model were fitted simultaneously, globally and with mass transfer term included to multiple referenced antigen binding curves using Biacore T100/T200 Evaluation software.
(§2) The in vitro binding activities of the recombinant anti-CD98 chimeric mAbs were measured against both recombinant CD98 extracellular domain proteins (ECDs) and CD98-expressing cells. Briefly, binding kinetics of anti-CD98 chimera mAbs for human and cynomolgus CD98 ECDs were determined by surface plasmon resonance-based measurements as described in Example 4. Table 10 reported the association and dissociation rate constants for CD98 binding, ka (M^−1 s^−1) and kd (s^−1), and the equilibrium dissociation constant KD (M) of the interaction between antibodies and the target antigen. Binding of anti-CD98 chimera mAbs for CD98 on cell surface was evaluated by flow cytometry against CHO-K1 cell line stably transfected to express human CD98 and 3T12 cell line stably transfected to express cynomolgus monkey CD98.
(§3) The binding kinetics of the recombinant anti-CD98 chimeric antibodies for purified recombinant CD98 protein (extracellular domain, ECD) were determined by surface plasmon resonance-based measurements, as described in the Example 4.

human CD98 ECD = target: T2, human CD98 ECD; assay: as above; conditions: huCD98 ECD
Description: as §1, §2, §3

[2] = Conjugation of anti-CD98 mAbs with Bcl-xL inhibitor synthons (precipitation, DAR, recovery, aggregation); conditions: mAb conjugated with Bcl-xL inhibitor synthon CZ, Method A
Description: Method A. A solution of BOND-BREAKER tris(2-carboxyethyl)phosphine (TCEP) solution (10 mM, 0.017 mL) was added to a solution of antibody (10 mg/mL, […]) preheated to 37° C. The reaction mixture was kept at 37° C. for 1 hour. The solution of reduced antibody was added to a solution of synthon (3.3 mM, 0.160 mL in DMSO) and gently mixed for 30 minutes. The reaction solution was loaded onto a desalting column (PD10, washed with DPBS 3x before use), followed by DPBS (1.6 mL) and eluted with additional DPBS (3 mL). The purified ADC solution was filtered through a 0.2 micron, low protein-binding 13 mm syringe-filter and stored at 4° C.
Method E. A solution of BOND-BREAKER tris(2-carboxyethyl)phosphine (TCEP) solution (10 mM, 0.017 mL) was added to the solution of antibody (10 mg/mL, 1 mL) at room temperature. The reaction mixture was heated to 37° C. for 75 minutes. The solution of reduced antibody cooled to room temperature and was added to a solution of synthon (10 mM, 0.040 mL in DMSO) followed by addition of boric buffer (0.1 mL, 1M, pH 8). The reaction solution was let to stand for 3 days at room temperature, loaded onto a desalting column (PD10, washed with DPBS 3×5 mL before use), followed by DPBS (1.6 mL) and eluted with additional DPBS (3 mL). The purified ADC solution was filtered through a 0.2 micron, low protein-binding 13 mm syringe-filter and stored at 4° C.

Sequence of cynomolgus monkey CD98 ECD (as listed by the source): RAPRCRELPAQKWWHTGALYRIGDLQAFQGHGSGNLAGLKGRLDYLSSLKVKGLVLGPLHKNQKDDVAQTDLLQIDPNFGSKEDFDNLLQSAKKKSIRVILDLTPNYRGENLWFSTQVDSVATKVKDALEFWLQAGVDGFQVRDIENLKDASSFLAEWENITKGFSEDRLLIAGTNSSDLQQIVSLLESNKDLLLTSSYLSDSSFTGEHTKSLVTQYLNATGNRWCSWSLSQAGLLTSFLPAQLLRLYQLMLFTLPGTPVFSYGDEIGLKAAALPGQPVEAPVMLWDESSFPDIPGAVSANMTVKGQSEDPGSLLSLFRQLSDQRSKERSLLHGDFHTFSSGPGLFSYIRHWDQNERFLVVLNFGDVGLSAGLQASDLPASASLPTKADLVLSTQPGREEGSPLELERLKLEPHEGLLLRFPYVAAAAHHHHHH

Row | Molecule | binding to human CD98 (human CD98) | ka [1] | kd [1] | ka (human CD98 ECD) | kd (human CD98 ECD) | Key observation for ADC solution during and after conjugation [2] | DAR by MS [2]
1 | huAb15v1 (antibody, V domains shown) VH: EVQLVESGGGVVQPGRSLRLSCAASGFTFSDYTMAWVRQAPGKGLEWVATIIYSGRGTYYRDAVKGRFTISRDNSKSTLYLQMNSLRAEDTAVYYCARQSDHTYYYWGYFDYWGQGTMVTVSS VL: DIVMTQSPDSLAVSLGERATINCKSSQSLLFSGNQKNYLAWYQQKPGQSPKLLIYWASTRQSGVPDRFSGSGSGTDFTLTIRSLQAEDVAIYYCQQYYDVPYTFGQGTKLEIK | maintained binding | 26000 M⁻¹ s⁻¹ | 2.6e-05 s⁻¹ | 53000 M⁻¹ s⁻¹ | 2.3e-05 s⁻¹ | Precipitated during conjugation; inefficient conjugation | 
2 | huAb15v3 (antibody, V domains shown) VH: EVQLVESGGGVVQPGRSLRLSCAASGFTFSDYTMAWVRQAPGKGLEWVATIIYSGRGTYYRDAVKGRFTISRDNSKSTLYLQMNSLRAEDTAVYYCARQSDDTYYYWGYFDYWGQGTMVTVSS VL: DIVMTQSPDSLAVSLGERATINCKSSQSLLFSGNQKNYLAWYQQKPGQSPKLLIYWASTRQSGVPDRFSGSGSGTDFTLTIRSLQAEDVAIYYCQQYYGSPYTFGQGTKLEIK | maintained binding | 18000 M⁻¹ s⁻¹ | 0.00014 s⁻¹ | 44000 M⁻¹ s⁻¹ | 8.5e-05 s⁻¹ | Precipitated during conjugation; inefficient conjugation | 1.2
3 | huAb15v6 (antibody, V domains shown) VH: EVQLVESGGGVVQPGRSLRLSCAASGFTFSDYTMAWVRQAPGKGLEWVATIIYDARGTYYRDAVKGRFTISRDNSKSTLYLQMNSLRAEDTAVYYCARQSDDTYYYWGYFDYWGQGTMVTVSS VL: DIVMTQSPDSLAVSLGERATINCKSSQSLLFSGNQKNYLAWYQQKPGQSPKLLIYWASTRQSGVPDRFSGSGSGTDFTLTIRSLQAEDVAIYYCQQYYSSPYTFGQGTKLEIK | maintained binding | 14000 M⁻¹ s⁻¹ | 0.00049 s⁻¹ | 38000 M⁻¹ s⁻¹ | 0.00026 s⁻¹ | Precipitated during conjugation; inefficient conjugation | 2.0
4 | huAb15v5 (antibody, V domains shown) VH: EVQLVESGGGVVQPGRSLRLSCAASGFTFSDYTMAWVRQAPGKGLEWVATIIYTGRGTYYRDAVKGRFTISRDNSKSTLYLQMNSLRAEDTAVYYCARQSDDTYYYWGYFDYWGQGTMVTVSS VL: DIVMTQSPDSLAVSLGERATINCKSSQSLLFSGNQKNYLAWYQQKPGQSPKLLIYWASTRQSGVPDRFSGSGSGTDFTLTIRSLQAEDVAIYYCQQYYSSPYTFGQGTKLEIK | maintained binding | 17000 M⁻¹ s⁻¹ | 0.00018 s⁻¹ | 41000 M⁻¹ s⁻¹ | 0.00013 s⁻¹ | Precipitated during conjugation; inefficient conjugation | 1.0
5 | huAb15v4 (antibody, V domains shown) VH: EVQLVESGGGVVQPGRSLRLSCAASGFTFSDYTMAWVRQAPGKGLEWVATIIYTGRGTYYRDAVKGRFTISRDNSKSTLYLQMNSLRAEDTAVYYCARQSDDTYYYWGYFDYWGQGTMVTVSS VL: DIVMTQSPDSLAVSLGERATINCKSSQSLLFSGNQKNYLAWYQQKPGQSPKLLIYWASTRQSGVPDRFSGSGSGTDFTLTIRSLQAEDVAIYYCQQYYDVPYTFGQGTKLEIK | maintained binding | 20000 M⁻¹ s⁻¹ | 5e-05 s⁻¹ | 35000 M⁻¹ s⁻¹ | 2.8e-05 s⁻¹ | Precipitated during conjugation; inefficient conjugation | 1.9
6 | huAb15v2 (antibody, V domains shown) VH: EVQLVESGGGVVQPGRSLRLSCAASGFTFSDYTMAWVRQAPGKGLEWVATIIYSGRGTYYRDAVKGRFTISRDNSKSTLYLQMNSLRAEDTAVYYCARQSDDTYYYWGYFDYWGQGTMVTVSS VL: DIVMTQSPDSLAVSLGERATINCKSSQSLLFSGNQKNYLAWYQQKPGQSPKLLIYWASTRQSGVPDRFSGSGSGTDFTLTIRSLQAEDVAIYYCQQYYDVPYTFGQGTKLEIK | maintained binding | 21000 M⁻¹ s⁻¹ | 4.8e-05 s⁻¹ | 42000 M⁻¹ s⁻¹ | 4.6e-05 s⁻¹ | Precipitated during conjugation; inefficient conjugation | 2.1
7 | huAb15v7 (antibody, V domains shown) VH: EVQLVESGGGVVQPGRSLRLSCAASGFTFSDYTMAWVRQAPGKGLEWVATIIYDARGTYYRDAVKGRFTISRDNSKSTLYLQMNSLRAEDTAVYYCARQSDDTYYYWGYFDYWGQGTMVTVSS VL: DIVMTQSPDSLAVSLGERATINCKSSQSLLFSGNQKNYLAWYQQKPGQSPKLLIYWASTRQSGVPDRFSGSGSGTDFTLTIRSLQAEDVAIYYCQQYYGSPYTFGQGTKLEIK | maintained binding | 14000 M⁻¹ s⁻¹ | 0.00043 s⁻¹ | 35000 M⁻¹ s⁻¹ | 0.00021 s⁻¹ | Precipitated during conjugation; inefficient conjugation | 2.2
